The experiment deals with Multidrug transporter EmrE (Escherichia coli (strain K12)) (Escherichia coli (strain K12)) (UniProt P23895). Kind of experiment: cell-based or functional assay.
Chain of UniProt P23895 (P23895 whole entry): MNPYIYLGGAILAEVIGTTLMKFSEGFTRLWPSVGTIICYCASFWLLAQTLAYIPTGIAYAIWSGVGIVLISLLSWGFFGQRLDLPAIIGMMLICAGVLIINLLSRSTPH

A87-I94 (peptide) showed an inhibition of ethidium bromide efflux from E. coli K12 cells (fluorescence decay), peptide 4 uM of 60%.

The substance I89-A96 (peptide) displayed an inhibition of ethidium bromide efflux from E. coli K12 cells (fluorescence decay), peptide 4 uM of 26%.

On to M92-L99 (peptide), for which the inhibition of ethidium bromide efflux from E. coli K12 cells (fluorescence decay), peptide 4 uM came to 68%.

For the origin of these results see patent US20200317736A1.
